Like-named read-outs stand apart in the source and are kept apart here.

Common to all, as to assay: SPR
(In SPR one partner is held on a chip, and binding of the other changes the refractive index at the surface.)

Experiment [1] deals with T1, HCoV-229E NTD (17–265 aa) (human coronavirus 229E, UniProt P15423 17-265).
T1 chain: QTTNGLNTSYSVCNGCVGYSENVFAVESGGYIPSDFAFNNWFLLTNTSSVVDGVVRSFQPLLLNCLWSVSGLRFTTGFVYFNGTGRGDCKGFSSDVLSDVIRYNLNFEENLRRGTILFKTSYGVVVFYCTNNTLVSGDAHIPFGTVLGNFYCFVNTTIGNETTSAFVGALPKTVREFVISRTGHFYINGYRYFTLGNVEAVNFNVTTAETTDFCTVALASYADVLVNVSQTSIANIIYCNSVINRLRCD

Experiment [2] addresses T2, HCoV-229E S1 subunit (17–560 aa) (human coronavirus 229E, UniProt P15423 17-560).
T2 chain: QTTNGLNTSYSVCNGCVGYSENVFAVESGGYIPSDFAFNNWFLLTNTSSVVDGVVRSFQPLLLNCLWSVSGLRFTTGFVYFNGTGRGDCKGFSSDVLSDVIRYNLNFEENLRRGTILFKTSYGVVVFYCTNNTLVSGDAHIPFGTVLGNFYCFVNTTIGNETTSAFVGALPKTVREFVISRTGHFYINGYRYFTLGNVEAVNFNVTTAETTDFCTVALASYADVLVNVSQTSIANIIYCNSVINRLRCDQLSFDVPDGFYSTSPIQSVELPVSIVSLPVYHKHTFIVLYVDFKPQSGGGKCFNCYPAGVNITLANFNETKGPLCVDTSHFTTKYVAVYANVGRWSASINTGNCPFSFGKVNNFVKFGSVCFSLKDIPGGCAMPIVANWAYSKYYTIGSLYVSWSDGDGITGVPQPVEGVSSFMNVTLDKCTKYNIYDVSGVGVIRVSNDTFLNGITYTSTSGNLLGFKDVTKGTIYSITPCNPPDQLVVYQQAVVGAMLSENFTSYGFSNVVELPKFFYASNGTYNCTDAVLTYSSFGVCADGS

Experiment [3] deals with T3, HCoV-229E S ectodomain (17–1115 aa), 229E S trimer (human coronavirus 229E, UniProt P15423 17-1115).
T3 chain: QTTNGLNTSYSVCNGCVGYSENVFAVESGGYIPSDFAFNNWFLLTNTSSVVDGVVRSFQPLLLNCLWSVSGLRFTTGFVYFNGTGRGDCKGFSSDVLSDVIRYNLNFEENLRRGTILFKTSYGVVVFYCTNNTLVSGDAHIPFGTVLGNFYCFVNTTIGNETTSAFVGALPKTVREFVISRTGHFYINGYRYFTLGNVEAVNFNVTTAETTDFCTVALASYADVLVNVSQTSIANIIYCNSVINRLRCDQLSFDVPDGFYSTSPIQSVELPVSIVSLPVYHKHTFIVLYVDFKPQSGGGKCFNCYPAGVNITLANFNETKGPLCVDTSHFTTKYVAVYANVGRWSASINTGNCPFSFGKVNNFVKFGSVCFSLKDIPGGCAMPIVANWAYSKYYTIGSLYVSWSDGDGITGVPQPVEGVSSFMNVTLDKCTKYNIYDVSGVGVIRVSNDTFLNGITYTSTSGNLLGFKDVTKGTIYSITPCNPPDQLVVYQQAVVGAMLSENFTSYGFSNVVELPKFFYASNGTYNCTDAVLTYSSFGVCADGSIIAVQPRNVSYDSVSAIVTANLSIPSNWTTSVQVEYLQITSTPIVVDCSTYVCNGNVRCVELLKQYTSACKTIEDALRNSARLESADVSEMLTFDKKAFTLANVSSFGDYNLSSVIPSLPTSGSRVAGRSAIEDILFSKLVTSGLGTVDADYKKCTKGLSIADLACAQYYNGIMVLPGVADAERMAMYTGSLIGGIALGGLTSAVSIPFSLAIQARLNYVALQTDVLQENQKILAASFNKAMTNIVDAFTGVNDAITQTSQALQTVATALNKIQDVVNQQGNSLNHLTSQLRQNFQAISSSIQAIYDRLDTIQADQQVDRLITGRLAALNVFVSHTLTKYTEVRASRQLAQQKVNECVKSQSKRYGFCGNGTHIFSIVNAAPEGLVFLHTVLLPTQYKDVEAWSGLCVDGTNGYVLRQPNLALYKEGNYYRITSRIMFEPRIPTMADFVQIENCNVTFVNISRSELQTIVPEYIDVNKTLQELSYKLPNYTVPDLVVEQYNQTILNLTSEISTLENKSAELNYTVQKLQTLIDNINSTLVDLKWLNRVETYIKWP

For experiment [4], the target named is T4, HCoV-NL63 S ectodomain (16–1291 aa) (human coronavirus NL63, UniProt Q6Q1S2 16-1291).
T4 chain: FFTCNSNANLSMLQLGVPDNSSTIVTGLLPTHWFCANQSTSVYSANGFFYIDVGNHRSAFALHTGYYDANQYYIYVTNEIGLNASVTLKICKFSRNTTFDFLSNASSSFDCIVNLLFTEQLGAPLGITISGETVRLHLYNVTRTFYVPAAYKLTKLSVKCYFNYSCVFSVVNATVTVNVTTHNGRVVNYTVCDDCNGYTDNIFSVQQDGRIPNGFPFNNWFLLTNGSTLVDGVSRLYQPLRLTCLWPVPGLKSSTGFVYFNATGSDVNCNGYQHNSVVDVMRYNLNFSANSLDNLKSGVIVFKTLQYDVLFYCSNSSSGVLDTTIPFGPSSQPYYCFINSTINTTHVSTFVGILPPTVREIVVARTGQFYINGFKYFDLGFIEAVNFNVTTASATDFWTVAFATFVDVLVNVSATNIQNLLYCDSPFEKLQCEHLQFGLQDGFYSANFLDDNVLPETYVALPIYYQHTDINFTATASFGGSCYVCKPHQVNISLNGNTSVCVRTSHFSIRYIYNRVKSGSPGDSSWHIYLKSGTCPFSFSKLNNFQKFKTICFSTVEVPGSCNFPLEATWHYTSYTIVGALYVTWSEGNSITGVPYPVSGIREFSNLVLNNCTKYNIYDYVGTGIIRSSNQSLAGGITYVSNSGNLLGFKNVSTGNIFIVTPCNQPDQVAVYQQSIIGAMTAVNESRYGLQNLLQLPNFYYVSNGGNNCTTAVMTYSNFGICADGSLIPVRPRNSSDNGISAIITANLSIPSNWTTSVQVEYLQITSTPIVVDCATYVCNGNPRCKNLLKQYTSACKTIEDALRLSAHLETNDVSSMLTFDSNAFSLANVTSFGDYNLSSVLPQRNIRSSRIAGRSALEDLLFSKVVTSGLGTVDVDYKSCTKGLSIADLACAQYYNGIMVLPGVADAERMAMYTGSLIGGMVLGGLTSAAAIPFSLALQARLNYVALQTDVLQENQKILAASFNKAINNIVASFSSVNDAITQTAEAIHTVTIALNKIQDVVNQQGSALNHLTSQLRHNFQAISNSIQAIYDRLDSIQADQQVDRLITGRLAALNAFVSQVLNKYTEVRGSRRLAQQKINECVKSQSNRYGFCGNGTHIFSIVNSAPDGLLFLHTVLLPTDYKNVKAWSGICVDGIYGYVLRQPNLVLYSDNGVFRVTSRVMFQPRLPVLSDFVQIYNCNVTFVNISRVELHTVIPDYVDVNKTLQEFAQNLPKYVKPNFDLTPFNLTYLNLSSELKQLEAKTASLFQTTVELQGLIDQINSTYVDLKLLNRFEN

Experiment [5] deals with T3, HCoV-229E S ectodomain (17–1115 aa), ….
In experiment [6] the target is T1, HCoV-229E NTD (17–265 aa).
In experiment [7] the target is T2, HCoV-229E S1 subunit (17–560 aa).
The target of experiment [8] is T4, HCoV-NL63 S ectodomain (16–1291 aa).
In experiment [9] the target is T5, HCoV-229E S2 subunit (575–1115 aa) (human coronavirus 229E, UniProt P15423 575-1115).
T5 chain: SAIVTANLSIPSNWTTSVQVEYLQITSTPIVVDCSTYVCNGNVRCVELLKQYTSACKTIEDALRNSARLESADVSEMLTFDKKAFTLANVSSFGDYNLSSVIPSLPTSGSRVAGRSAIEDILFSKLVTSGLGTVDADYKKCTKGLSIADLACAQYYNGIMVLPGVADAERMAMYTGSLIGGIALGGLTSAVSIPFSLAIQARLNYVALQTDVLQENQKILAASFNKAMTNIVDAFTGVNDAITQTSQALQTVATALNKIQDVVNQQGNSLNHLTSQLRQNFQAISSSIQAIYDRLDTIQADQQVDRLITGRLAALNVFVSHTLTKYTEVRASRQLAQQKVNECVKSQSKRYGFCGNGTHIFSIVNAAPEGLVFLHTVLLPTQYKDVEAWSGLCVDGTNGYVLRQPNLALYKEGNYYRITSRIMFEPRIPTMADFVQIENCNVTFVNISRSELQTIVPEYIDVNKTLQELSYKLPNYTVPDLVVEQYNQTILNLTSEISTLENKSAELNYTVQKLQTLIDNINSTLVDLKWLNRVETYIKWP

B1: Fab F07 (Fab, V domains shown)
VH: EVQLVESGGGLVQPGGSLRLSCAASGFNISYYSIHWVRQAPGKGLEWVASIYPYYGYTSYADSVKGRFTISADTSKNTAYLQMNSLRAEDTAVYYCARSSGYYHYPYSHSGLDYWGQGTLVTVSS
VL: DIQMTQSPSSLSASVGDRVTITCRASQSVSSAVAWYQQKPGKAPKLLIYSASSLYSGVPSRFSGSRSGTDFTLTISSLQPEDFATYYCQQSYYWGGPITFGQGTKVEIK
As usually defined, the koff is the first-order rate constant of dissociation. The low end stands for a long-lived complex, the high end for a short-lived complex. What is called Kd is a measure of binding affinity in units of concentration. A low value points to tighter binding. In the case of B1, the koff in [1] is 0.00053 s⁻¹; in [2], 0.00036 s⁻¹; in experiment [3] it was 0.00035 s⁻¹. In addition, the Kd in [4] was determined as 3900 nM; in [5], 1.4 nM; in [6], 3.1 nM; in experiment [7], 0.7 nM; in [8], 6400 nM.

B2: Fab D12 (Fab, V domains shown)
VH: EVQLVESGGGLVQPGGSLRLSCAASGFNLSSYSMHWVRQAPGKGLEWVAYISPYYSYTSYADSVKGRFTISADTSKNTAYLQMNSLRAEDTAVYYCARVWYHSYPGWVPWGSWAFDYWGQGTLVTVSS
VL: DIQMTQSPSSLSASVGDRVTITCRASQSVSSAVAWYQQKPGKAPKLLIYSASSLYSGVPSRFSGSRSGTDFTLTISSLQPEDFATYYCQQAYYSPITFGQGTKVEIK
In the case of B2, the koff turned out to be 0.00043 s⁻¹ in experiment [1], 0.00086 s⁻¹ in [2] and 0.0018 s⁻¹ in experiment [3]. Also, the dissociation constant (Kd) in experiment [4] was determined as 3800 nM; in [5], 3.9 nM; in experiment [6] it was 3.2 nM; in experiment [7], 1.1 nM; in experiment [8], 8400 nM.

B3: Fab F12 (Fab, V domains shown)
VH: EVQLVESGGGLVQPGGSLRLSCAASGFNLYYYYIHWVRQAPGKGLEWVASISPYSGYTSYADSVKGRFTISADTSKNTAYLQMNSLRAEDTAVYYCARAFSSYYSHSVGLDYWGQGTLVTVSS
VL: DIQMTQSPSSLSASVGDRVTITCRASQSVSSAVAWYQQKPGKAPKLLIYSASSLYSGVPSRFSGSRSGTDFTLTISSLQPEDFATYYCQQHSWGGLITFGQGTKVEIK
On to B3, for which the koff in experiment [9] amounted to 2.7e-05 s⁻¹; in experiment [3], 0.00091 s⁻¹.

Values taken from PMC9636267 (2022).
